Strand notation (5' to 3'): a small letter for the sugar, then the base; units joined by * are phosphorothioate-linked, units joined directly phosphodiester-linked; [ ] holds rarer units or linkages, { } end groups; capitals alone tell only the bases. m = 2'-O-methyl; r = 2'-OH (RNA)
What was measured:
[1] = system: TTR; assay: TTR editing in primary cyno hepatocytes electroporated with Spy Cas9 protein and sgRNAs (Tables 14, 15); assay type: cell-based, cynomolgus monkey; conditions: Table 14; primary cyno hepatocytes electroporated with Spy Cas9 protein (RNP) and sgRNAs
Protocol: (§1) Primary liver hepatocytes. Primary human liver hepatocytes (PHH) and primary cynomolgus liver hepatocytes (PCH) (Gibco) were cultured per the manufacturer's protocol (Invitrogen, protocol 11.28.2012). In brief, the cells were thawed and resuspended in hepatocyte thawing medium with supplements (Gibco, Cat. CM7000) followed by centrifugation at 100 g for 10 minutes for human and 80 g for 4 minutes for cyno. The supernatant was discarded and the pelleted cells resuspended in hepatocyte plating medium plus supplement pack (Invitrogen, Cat. A1217601 and CM3000). Cells were counted and plated on Bio-coat collagen I coated 96-well plates (ThermoFisher, Cat. 877272) at a density of 33,000 cells/well for human or 60,000 cells/well for cyno (or 65,000 cells/well when assaying effects on TTR protein, described further below). Plated cells were allowed to settle and adhere for 6 or 24 hours in a tissue culture incubator at 37° C. and 5% CO2 atmosphere. After incubation cells were checked for monolayer formation and media was replaced with hepatocyte culture medium with serum-free supplement pack (Invitrogen, Cat. A1217601 and CM4000).
[…] formation was performed prior to electroporation or transfection of Spy Cas9 protein loaded with guide RNAs (RNPs) onto cells. For dual guide (dgRNAs), individual crRNA and trRNA was pre-annealed by mixing equivalent amounts of reagent and incubating at 95° C. for 2 min and cooling to room temperature. Single guide (sgRNAs) were boiled at 95° C. for 2 min and cooling to room temperature. The boiled dgRNA or sgRNA was incubated with Spy Cas9 protein in Optimem for 10 minutes at room temperature to form a ribonucleoprotein (RNP) complex.
For RNP electroporation into primary human and cyno hepatocytes, the cells are thawed and resuspended in Lonza electroporation Primary Cell P3 buffer at a concentration of 2500 cells per μL for human hepatocytes and 3500 cells per μL for cyno hepatocytes. A volume of 20 μL of resuspended cells and 5 μL of RNP are mixed together per guide. 20 μL of the mixture is placed into a Lonza electroporation plate. The cells were electroporated using the Lonza nucleofector with the preset protocol EX-147. Post electroporation, the cells are transferred into a Biocoat plate containing pre-warmed maintenance media and placed in a tissue culture incubator at 37° C. and 5% CO2.
Transfected cells were harvested post-transfection at 24, 48, or 72 hours. The genomic DNA was extracted from each well of a 96-well plate using 50 μL/well BuccalAmp DNA Extraction solution (Epicentre, Cat. QE09050) per manufacturer's protocol. All DNA samples were subjected to PCR and subsequent NGS analyses, as described herein.
(§2) To quantitatively determine the efficiency of editing at the target location in the genome, sequencing was utilized to identify the presence of insertions and deletions introduced by gene editing.
(§3) Primers were designed around the target site within the gene of interest (e.g. TTR), and the genomic area of interest was amplified.
(§4) Additional PCR was performed per the manufacturer's protocols (Illumina) to add chemistry for sequencing. The amplicons were sequenced on an Illumina MiSeq instrument. The reads were aligned to a reference genome (e.g., the human reference genome (hg38), the cynomologus reference genome (mf5), the rat reference genome (rn6), or the mouse reference genome (mm10)) after eliminating those having low quality scores. The resulting files containing the reads were mapped to the reference genome (BAM files), where reads that overlapped the target region of interest were selected and the number of wild type reads versus the number of reads which contain an insertion, substitution, or deletion was calculated.
The editing percentage (e.g., the “editing efficiency” or “percent editing” or “indel frequency”) is defined as the total number of sequence reads with insertions/deletions (“indels”) or substitutions over the total number of sequence reads, including wild type. […]

[2] = system: TTR; assay: EC50 and maximum editing in primary cyno hepatocytes treated with LNP formulated U-depleted Spy Cas9 mRNA and sgRNAs (Tables 20, 22); assay type: cell-based, cynomolgus monkey; parameters: key: % of sequence reads with indels or substitutions over total reads; conditions: Table 20, LNP with U-depleted Spy Cas9 mRNA and human specific sgRNAs, dose response
Protocol: as §1
(§5) For LNPs prepared using the cross-flow technique, the LNPs were formed by impinging jet mixing of the lipid in ethanol with two volumes of RNA solutions and one volume of water. The lipid in ethanol is mixed through a mixing cross with the two volumes of RNA solution. A fourth stream of water is mixed with the outlet stream of the cross through an inline tee. (See WO2016010840 FIG. 2.) The LNPs were held for 1 hour at room temperature, and further diluted with water (approximately 1:1 v/v). Diluted LNPs were concentrated using tangential flow filtration on a flat sheet cartridge (Sartorius, 100 kD MWCO) and then buffer exchanged by diafiltration into 50 mM Tris, 45 mM NaCl, 5% (w/v) sucrose, pH 7.5 (TSS). Alternatively, the final buffer exchange into TSS was completed with PD-10 desalting columns (GE). If required, formulations were concentrated by centrifugation with Amicon 100 kDa centrifugal filters (Millipore). The resulting mixture was then filtered using a 0.2 μm sterile filter. The final LNP was stored at 4° C. or −80° C. until further use.
as §2, §3, §4
(§6) The editing percentage (e.g., the “editing efficiency” or “percent editing” or “indel frequency”) is defined as the total number of sequence reads with insertions/deletions (“indels”) or substitutions over the total number of sequence reads, including wild type.
(§7) Lipid nanoparticle formulations of modified sgRNAs targeting human TTR and the cyno matched sgRNA sequences were tested on primary human hepatocytes and primary cyno hepatocytes in a dose response curve. Primary human and cyno hepatocytes were plated as described in Example 1. Both cell lines were incubated at 37° C., 5% CO2 for 24 hours prior to treatment with LNPs. […]

[3] = system: TTR; assay: EC50 and maximum editing in primary human hepatocytes treated with LNP formulated U-depleted Spy Cas9 mRNA and sgRNAs (Tables 19, 21); assay type: cell-based; parameters: key: % of sequence reads with indels or substitutions over total reads; conditions: Table 19, LNP with U-depleted Spy Cas9 mRNA and human specific sgRNAs, dose response
Protocol: as §1, §5, §2, §3, §4, §6, §7

B1: G000498: TTR sgRNA modified sequence, Human, SEQ ID No. 105; guide sequence of CR003359 (nucleic acid)
guide: mA*mG*mU*rGrArGrUrCrUrGrGrArGrArGrCrUrGrCrArGrUrUrUrUrArGrAmGmCmUmAmGmAmAmAmUmAmGmCrArArGrUrUrArArArArUrArArGrGrCrUrArGrUrCrCrGrUrUrArUrCrAmAmCmUmUmGmAmAmAmAmAmGmUmGmGmCmAmCmCmGmAmGmUmCmGmGmUmGmCmU*mU*mU*mU
Avg % Deletion [1]: 22.87%
Avg % Edit [1]: 91.37%
Avg % Insert [1]: 68.50%

B2: G000494: TTR sgRNA modified sequence, Human, SEQ ID No. 101; guide sequence of CR003360 (nucleic acid)
guide: mG*mU*mG*rArGrUrCrUrGrGrArGrArGrCrUrGrCrArUrGrUrUrUrUrArGrAmGmCmUmAmGmAmAmAmUmAmGmCrArArGrUrUrArArArArUrArArGrGrCrUrArGrUrCrCrGrUrUrArUrCrAmAmCmUmUmGmAmAmAmAmAmGmUmGmGmCmAmCmCmGmAmGmUmCmGmGmUmGmCmU*mU*mU*mU
Max Editing [2]: 60.84
Avg % Deletion [1]: 2.07%
Avg % Edit [1]: 81.53%
Avg % Insert [1]: 79.57%
Max Editing [3]: 75.70

B3: G000485: TTR sgRNA modified sequence, Human, SEQ ID No. 92; guide sequence of CR003336 (nucleic acid)
guide: mC*mC*mU*rCrCrUrCrUrGrCrCrUrUrGrCrUrGrGrArCrGrUrUrUrUrArGrAmGmCmUmAmGmAmAmAmUmAmGmCrArArGrUrUrArArArArUrArArGrGrCrUrArGrUrCrCrGrUrUrArUrCrAmAmCmUmUmGmAmAmAmAmAmGmUmGmGmCmAmCmCmGmAmGmUmCmGmGmUmGmCmU*mU*mU*mU
Avg % Deletion [1]: 1.07%
Avg % Edit [1]: 22.93%
Avg % Insert [1]: 22.00%

B4: G000567: TTR sgRNA modified sequence, Human, SEQ ID No. 109; guide sequence of CR003352 (nucleic acid)
guide: mG*mA*mA*rArGrGrCrUrGrCrUrGrArUrGrArCrArCrCrGrUrUrUrUrArGrAmGmCmUmAmGmAmAmAmUmAmGmCrArArGrUrUrArArArArUrArArGrGrCrUrArGrUrCrCrGrUrUrArUrCrAmAmCmUmUmGmAmAmAmAmAmGmUmGmGmCmAmCmCmGmAmGmUmCmGmGmUmGmCmU*mU*mU*mU
Max Editing [2]: 97.06

B5: G000484: TTR sgRNA modified sequence, Human, SEQ ID No. 91; guide sequence of CR003367 (nucleic acid)
guide: mA*mG*mA*rCrArCrCrArArArUrCrUrUrArCrUrGrGrArGrUrUrUrUrArGrAmGmCmUmAmGmAmAmAmUmAmGmCrArArGrUrUrArArArArUrArArGrGrCrUrArGrUrCrCrGrUrUrArUrCrAmAmCmUmUmGmAmAmAmAmAmGmUmGmGmCmAmCmCmGmAmGmUmCmGmGmUmGmCmU*mU*mU*mU
Max Editing [2]: 0.22
Max Editing [3]: 94.14

B6: G000486: TTR sgRNA modified sequence, Human, SEQ ID No. 93; guide sequence of CR003339 (nucleic acid)
guide: mA*mC*mA*rCrArArArUrArCrCrArGrUrCrCrArGrCrArGrUrUrUrUrArGrAmGmCmUmAmGmAmAmAmUmAmGmCrArArGrUrUrArArArArUrArArGrGrCrUrArGrUrCrCrGrUrUrArUrCrAmAmCmUmUmGmAmAmAmAmAmGmUmGmGmCmAmCmCmGmAmGmUmCmGmGmUmGmCmU*mU*mU*mU
Avg % Deletion [1]: 68.07%
Avg % Edit [1]: 79.90%
Avg % Insert [1]: 11.90%

B7: G000572: TTR sgRNA modified sequence, Human, SEQ ID No. 113; guide sequence of CR003385 (nucleic acid)
guide: mC*mC*mC*rCrUrArCrUrCrCrUrArUrUrCrCrArCrCrArGrUrUrUrUrArGrAmGmCmUmAmGmAmAmAmUmAmGmCrArArGrUrUrArArArArUrArArGrGrCrUrArGrUrCrCrGrUrUrArUrCrAmAmCmUmUmGmAmAmAmAmAmGmUmGmGmCmAmCmCmGmAmGmUmCmGmGmUmGmCmU*mU*mU*mU
Max Editing [2]: 100.31
Max Editing [3]: 97.94

B8: G000491: TTR sgRNA modified sequence, Human, SEQ ID No. 98; guide sequence of CR003338 (nucleic acid)
guide: mA*mU*mA*rCrCrArGrUrCrCrArGrCrArArGrGrCrArGrGrUrUrUrUrArGrAmGmCmUmAmGmAmAmAmUmAmGmCrArArGrUrUrArArArArUrArArGrGrCrUrArGrUrCrCrGrUrUrArUrCrAmAmCmUmUmGmAmAmAmAmAmGmUmGmGmCmAmCmCmGmAmGmUmCmGmGmUmGmCmU*mU*mU*mU
Avg % Deletion [1]: 1.90%
Avg % Edit [1]: 66.20%
Avg % Insert [1]: 64.37%

B9: G000571: TTR sgRNA modified sequence, Human, SEQ ID No. 112; guide sequence of CR005301 (nucleic acid)
guide: mG*mU*mC*rArCrArGrArArArCrArCrUrCrArCrCrGrUrGrUrUrUrUrArGrAmGmCmUmAmGmAmAmAmUmAmGmCrArArGrUrUrArArArArUrArArGrGrCrUrArGrUrCrCrGrUrUrArUrCrAmAmCmUmUmGmAmAmAmAmAmGmUmGmGmCmAmCmCmGmAmGmUmCmGmGmUmGmCmU*mU*mU*mU
Max Editing [2]: 97.03
Max Editing [3]: 71.28

B10: G000568: TTR sgRNA modified sequence, Human, SEQ ID No. 110; guide sequence of CR003391 (nucleic acid)
guide: mG*mG*mC*rUrGrUrCrGrUrCrArCrCrArArUrCrCrCrArGrUrUrUrUrArGrAmGmCmUmAmGmAmAmAmUmAmGmCrArArGrUrUrArArArArUrArArGrGrCrUrArGrUrCrCrGrUrUrArUrCrAmAmCmUmUmGmAmAmAmAmAmGmUmGmGmCmAmCmCmGmAmGmUmCmGmGmUmGmCmU*mU*mU*mU
Max Editing [2]: 87.93
Max Editing [3]: 95.72

B11: G000483: TTR sgRNA modified sequence, Human, SEQ ID No. 90; guide sequence of CR005298 (nucleic acid)
guide: mU*mC*mC*rArCrUrCrArUrUrCrUrUrGrGrCrArGrGrArGrUrUrUrUrArGrAmGmCmUmAmGmAmAmAmUmAmGmCrArArGrUrUrArArArArUrArArGrGrCrUrArGrUrCrCrGrUrUrArUrCrAmAmCmUmUmGmAmAmAmAmAmGmUmGmGmCmAmCmCmGmAmGmUmCmGmGmUmGmCmU*mU*mU*mU
Max Editing [2]: 56.52
Max Editing [3]: 77.39

B12: G000570: TTR sgRNA modified sequence, Human, SEQ ID No. 111; guide sequence of CR003347 (nucleic acid)
guide: mC*mA*mU*rUrGrArUrGrGrCrArGrGrArCrUrGrCrCrUrGrUrUrUrUrArGrAmGmCmUmAmGmAmAmAmUmAmGmCrArArGrUrUrArArArArUrArArGrGrCrUrArGrUrCrCrGrUrUrArUrCrAmAmCmUmUmGmAmAmAmAmAmGmUmGmGmCmAmCmCmGmAmGmUmCmGmGmUmGmCmU*mU*mU*mU
Max Editing [2]: 96.73
Max Editing [3]: 98.22

Source: patent US11795460B2, “Compositions and methods for TTR gene editing and treating ATTR amyloidosis” (Intellia Therapeutics, Inc., priority 2017, dated 2023)
